This note sets out measurements from patent US20260274985A1 (MYTHIC THERAPEUTICS, published 2026).

Residue numbers refer to the chain shown, from its start.

Experiment [1] concerns the target T1, Human TROP2 Protein, His Tag, Acro Biosystems (human, UniProt P09758 27-274).
T1 construct: Bought protein; not shown: His tag
T1 sequence: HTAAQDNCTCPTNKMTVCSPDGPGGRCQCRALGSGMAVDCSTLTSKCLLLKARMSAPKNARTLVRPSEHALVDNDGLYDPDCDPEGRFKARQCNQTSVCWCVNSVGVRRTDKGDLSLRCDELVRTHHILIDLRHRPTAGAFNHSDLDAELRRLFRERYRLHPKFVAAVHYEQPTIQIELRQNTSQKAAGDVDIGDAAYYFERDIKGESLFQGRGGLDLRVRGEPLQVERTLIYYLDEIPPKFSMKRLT
The experiment is described as follows: Octet (BLI). In general terms: In BLI a coated tip is dipped into the sample, and binding shifts an interference pattern.

In experiment [2] the target is T2, TROP2 on TROP2-positive NCI-H1975 cells (human, UniProt P09758 27-323).
T2 construct: Endogenous TROP2 of the human NCI-H1975 cell line; also called TACSTD2
T2 sequence: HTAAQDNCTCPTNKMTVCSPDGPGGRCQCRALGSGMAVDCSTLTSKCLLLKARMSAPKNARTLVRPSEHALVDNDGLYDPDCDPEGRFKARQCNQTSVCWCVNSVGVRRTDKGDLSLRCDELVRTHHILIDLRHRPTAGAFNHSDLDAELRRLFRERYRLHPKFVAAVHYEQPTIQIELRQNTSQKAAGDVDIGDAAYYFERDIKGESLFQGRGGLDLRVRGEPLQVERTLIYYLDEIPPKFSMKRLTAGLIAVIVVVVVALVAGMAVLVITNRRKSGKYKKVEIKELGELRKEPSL
Kind of experiment: binding to NCI-H1975 cells at pH 6.4, maximal MFI.

Experiment [3] deals with T3, Human TROP2 Protein, His Tag (Acro Biosystems) (human, UniProt P09758 27-274).
T3 construct: not shown: His tag
T3 sequence (looked up): T1 sequence
The experiment is described as follows: BLI (Octet).

Experiment [4] concerns the target T2, TROP2 on TROP2-positive NCI-H1975 cells. Kind of experiment: cell-based or functional assay.
Experiment [5] deals with T4, Human TROP2 Protein, His Tag (human, UniProt P09758 27-274).
T4 construct: Bought protein; also called TACSTD2; not shown: His tag
T4 sequence (looked up): T1 sequence
Kind of experiment: BLI (Octet) [1/2]. A digest of the protocol:
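Antibody variants from day-4 expression supernatants, diluted in 1×PBST pH 7.4 by expression level, captured on anti-human Fc tips. Association with 50 nM human TROP2-His in PBST pH 7.4 for 120 sec; dissociation in PBST pH 7.4 or pH 5.4 for 300 sec. Curves examined for koff at each pH versus parent antibody.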

The target in experiment [6] is T5, Human TROP2 Protein, His Tag (Acro Biosystems) (human, UniProt P09758 27-274).
T5 construct: also called TACSTD2; not shown: His tag
T5 sequence (looked up): T1 sequence
The experiment is described as follows: BLI (Octet) [1/2].

In experiment [7] the target is T6, Human TROP2 Protein, His Tag (Acro Biosystems) (human, UniProt P09758 27-274).
T6 construct: Bought protein; not shown: His tag
T6 sequence (looked up): T1 sequence
Kind of experiment: BLI (Octet), Ab on anti-human Fc sensor, 50 nM TROP2-His; 1 = pH dependent. Here is the method:
After allowing for four days of protein expression, cell culture supernatants were collected, quantified by SDS-PAGE analysis (DNS), and the pH dependence of the variant was evaluated using biolayer interferometry (BLI) on an Octet RED 96e instrument. Briefly, cell culture supernatants were diluted based on qualitative expression level of the variant determined by visual examination of SDS-PAGE gels, 5 μL of cell culture supernatant was diluted into 195 μL of 1×PBST, pH 7.4 for high expressors, 25 μL of cell culture supernatant was diluted into 175 μL of 1×PBST, pH 7.4 for medium expressors and 100 μL of cell culture supernatant was diluted into 100 μL of 1×PBST, pH 7.4 for low expressors for loading onto the sensor tips. The resulting diluted supernatants were then captured on an anti-human Fc sensor (Forte Bio). A baseline was established using 1×PBST (50 mM Potassium Phosphate Buffer+150 mM NaCl+0.05% Tween 20) pH 7.4, and the sensor was associated with 50 nM of TROP2 (Human TROP2 Protein, His Tag, Acro Biosystems) in 1×PBST pH 7.4 for 120 sec to generate an association curve. In the dissociation phase, the antibody-antigen complex on the sensor was exposed to 1×PBST pH 7.4 or pH 5.4, for 300 sec. […]

For experiment [8], the target named is T4, Human TROP2 Protein, His Tag. The experiment is described as follows: BLI (Octet), IgG on anti-human Fc sensor, 50 nM human TROP2-His; legend: 1 = pH dependent.
Experiment [9] has as its target T2, TROP2 on TROP2-positive NCI-H1975 cells. Kind of experiment: cell-based or functional assay. The source holds these as a separate data set.
Experiment [10] addresses T7, Human TROP2 Protein, His Tag (Acro Biosystems) (human, UniProt P09758 27-274).
T7 construct: Bought protein; also called TACSTD2; not shown: His tag
T7 sequence: T1 sequence
The experiment is described as follows: BLI (Octet).

B1: MYT11566 (WT sacituzumab variable regions) (antibody, human IgG1, V domains shown)
VH: QVQLQQSGSELKKPGASVKVSCKASGYTFTNYGMNWVKQAPGQGLKWMGWINTYTGEPTYTDDFKGRFAFSLDTSVSTAYLQISSLKADDTAVYFCARGGFGSSYWYFDVWGQGSLVTVSS
VL: DIQLTQSPSSLSASVGDRVSITCKASQDVSIAVAWYQQKPGKAPKLLIYSASYRYTGVPDRFSGSGSGTDFTLTISSLQPEDFAVYYCQQHYITPLTFGAGTKVEIK
notes: Human IgG1 heavy chain constant domain and Kappa light chain constant domain; also called Sacituzumab WT
For B1, the Kd (commonly a measure of binding affinity in units of concentration) in experiment [1] came out at 0.6 nM. In addition, the “Max MFI (@ pH 6.4)-H1975” value in [2] came to 29500 MFI.

B2: MYT12406 (antibody, V domains shown)
VH: QVQLVQSGAEVKKPGASVKVSCKASGYTFTTAGMQWVRQAPGQGLEWMGWINTHSGVPKYAEDFKGRVTISADTSTSTAYLQLSSLKSEDTAVYYCARSGFGSSYWYFDVWGQGTLVTVSS
VL: B1 VL with L4M, S20T, I31T, A51H, D60S, Q89H, Y92H, A100Q, V104L
notes: datopotamab VL 51, 89, 92 substituted
For the molecule B2, in experiment [3], the binding result was “no binding (tested: 50 nM)”.

B3: MYT11635 (WT datopotamab variable regions) (antibody, human IgG1, V domains shown)
VH: B2 VH
VL: B1 VL with L4M, S20T, I31T, D60S, A100Q, V104L
notes: Human IgG1 heavy chain constant domain and Kappa light chain constant domain; also called Datopotamab WT
As for B3, in [1], the affinity, expressed as Kd, was 1.25 nM. For the same molecule, the “Max MFI (@ pH 6.4)-H1975” value in [2] worked out at 25900 MFI. For the same molecule, in experiment [4], the “Cytotox Fold over datopotamab (FOD)” value turned out to be 1 fold over datopotamab.

B4: MYT11679 (antibody, V domains shown)
VH: B2 VH
VL: B1 VL with L4M, S20T, S26H, I31T, D60S, A100Q, V104L
notes: IgG from supernatant; His at LCV position 26; also called datopotamab variant L1 03
For B4, the binding result in experiment [5] is reported as “binds”.

B5: MYT13251 (antibody, V domains shown)
VH: B1 VH with D62H
VL: B1 VL with S52H, I93H
notes: Sacituzumab HC-LC pairing variant
On to B5, for which the binding result in [6] is “binds”.

B6: MYT11619 (antibody, V domains shown)
VH: B1 VH
VL: B1 VL with S50H
notes: Sacituzumab variant, His at LCV position 50 (L2 01)
Take B6: the binding result in experiment [7] was “binds”.

B7: MYT12407 (antibody, V domains shown)
VH: B2 VH
VL: B1 VL with L4M, S20T, I31T, S52H, D60S, Q89H, Y92H, A100Q, V104L
notes: datopotamab VL 52, 89, 92 substituted
On to B7, for which the binding result in [3] is recorded as “no binding (tested: 50 nM)”.

B8: MYT11688 (antibody, V domains shown)
VH: B2 VH
VL: B1 VL with L4M, S20T, I31T, S50H, D60S, A100Q, V104L
notes: IgG from supernatant; His at LCV position 50; also called datopotamab variant L2 01
With B8, the binding result in experiment [8] is “binds”.

B9: MYT11616 (antibody, V domains shown)
VH: B1 VH
VL: B1 VL with A32H
notes: Sacituzumab variant, His at LCV position 32 (L1 09)
Take B9: the binding result in experiment [7] is “binds”.

B10: MYT13425 (antibody, human IgG1, V domains shown)
VH: B1 VH with D62H
VL: B1 VL with S30H, A51H, I93H
notes: also called sacituzumab HC-LC pairing variant; Sacituzumab pH variant
With B10, in [1], the Kd stood at 3.99 nM. For the same molecule, the “Max MFI (@ pH 6.4)-H1975” value in [2] is 11200 MFI. The “Cytotox Fold over datopotamab (FOD)” value in [4] was 1.39 fold over datopotamab. Further, in experiment [9], the “FOW H1975 (10 nM)” value is 1.94 fold over parent antibody.

B11: MYT11678 (antibody, V domains shown)
VH: B2 VH
VL: B1 VL with L4M, S20T, A25H, I31T, D60S, A100Q, V104L
notes: IgG from supernatant; His at LCV position 25; also called datopotamab variant L1 02
As to B11, the binding result in experiment [5] is “binds”.

B12: MYT12405 (antibody, V domains shown)
VH: B2 VH
VL: B1 VL with L4M, S20T, I31T, A51H, S52H, D60S, Y92H, A100Q, V104L
notes: datopotamab VL 51, 52, 92 substituted
B12: in experiment [3], the binding result was “no binding (tested: 50 nM)”.

B13: MYT13250 (antibody, V domains shown)
VH: B1 VH with Y60H
VL: B1 VL with S52H, I93H
notes: as for B5
For B13, the binding result in experiment [6] was “binds”.

B14: MYT11687 (antibody, V domains shown)
VH: B2 VH
VL: B1 VL with L4M, S20T, I31T, A34H, D60S, A100Q, V104L
notes: IgG from supernatant; His at LCV position 34; also called datopotamab variant L1 11
In the case of B14, in experiment [8], the binding result was “binds”.

B15: MYT11680 (antibody, V domains shown)
VH: B2 VH
VL: B1 VL with L4M, S20T, Q27H, I31T, D60S, A100Q, V104L
notes: IgG from supernatant; His at LCV position 27; also called datopotamab variant L1 04
For the molecule B15, the binding result in [5] is reported as “binds”.

B16: MYT12408 (hu7E6SVG variant, HCV substitutions at 33, 34) (antibody, V domains shown)
VH: QVQLQESGPGLVKPSETLSLTCTVSGGSISSYHHHWIRQPPGKGLEWIGVIWTSGVTDYNSALMGRVTISVDTSKNQFSLKLSSVTAADTAVYYCARDGDYDRYTMDYWGQGTLVTVSS
VL: DIVMTQSPDSLAVSLGERATINCRASKSVSTSGYSYMHWYQQKPGQPPKLLIYLASNLESGVPDRFSGSGSGTDFTLTISSLQAEDVAVYYCQHSRELPYTFGQGTKLEIK
With B16, the binding result in [10] is listed as “binds”.

B17: MYT12409 (hu7E6SVG variant, HCV substitutions at 33, 51) (antibody, V domains shown)
VH: B16 VH with H34V, I51H
VL: B16 VL
Turning to B17, the binding result in [10] was “binds”.
